Results published in patent EP4674868A1 (Jiangsu Hengrui Pharmaceuticals Co., Ltd., dated 2026).
Positions count from the first letter of the chain named. Where two headings read alike, the source gives them in different places.

What was measured:
[1] = biological target: T1, human CD40 on the surface of HEK293 cells (HEK293-HuCD40) (human, UniProt P25942 21-277); assay: cell-based or functional assay
[2] = biological target: T2, human 4-1BB on the surface of HEK293 cells (HEK293-Hu4-1BB) (human, UniProt Q07011 24-255); assay: cell-based or functional assay
[3] = biological target: T3, human FAP on the surface of CHO-K1 cells (CHO-K1-HuFAP) (human, UniProt Q12884 1-760); assay: FACS, CHO-K1-HuFAP cells
T3 construct: whole, on cells; also called CHO cell line overexpressing human FAP; FAP on the surface of CHO-K1-HuFAP cells

[4] = biological target: T1, human CD40 on the surface of HEK293 …; assay: cell-based or functional assay; remark: listed apart in the source
[5] = biological target: T2, human 4-1BB on the surface of HEK293 …; assay: FACS, HEK293-Hu4-1BB cells
[6] = biological target: T2, human 4-1BB on the surface of HEK293 …; assay: cell-based or functional assay; remark: listed apart in the source
[7] = biological target: T3, human FAP on the surface of CHO-K1 …; assay: FACS, CHO-K1-HuFAP cells; remark: listed apart in the source
[8] = biological target: T1, human CD40 on the surface of HEK293 …; assay: FACS, HEK293-HuCD40 cells
[9] = biological target: T2, human 4-1BB on the surface of HEK293 …; assay: FACS, HEK293-Hu4-1BB cells; remark: listed apart in the source
[10] = biological target: T1, human CD40 on the surface of HEK293 …; assay: FACS, HEK293-HuCD40 cells; remark: listed apart in the source
[11] = biological target: T4, h-FAP-His (recombinant human fibroblast activation protein, Leu26-Asp760, His-tagged) (human, UniProt Q12884 26-760); assay: SPR, antibody captured by anti-human IgG (Fc) on CM5 chip, h-FAP-His as analyte
T4 construct: range 26-760; Bought protein with a His tag; also called human FAP-His protein; His-tagged FAP recombinant protein

[12] = biological target: T2, human 4-1BB on the surface of HEK293 …; assay: FACS, HEK293-Hu4-1BB cells; remark: listed apart in the source
[13] = biological target: T2, human 4-1BB on the surface of HEK293 …; assay: cell-based or functional assay; remark: listed apart in the source
[14] = biological target: T2, human 4-1BB on the surface of HEK293 …; assay: FACS, HEK293-Hu4-1BB cells; remark: listed apart in the source

B1: MP0310 (FAP/4-1BB bispecific antibody molecule, control) (other)
chain: GSDLGKKLLEAARAGQDDEVRELLKAGADVNAKDYFSHTPLHLAARNGHLKIVEVLLKAGADVNAKDFAGKTPLHLAAADGHLEIVEVLLKAGADVNAQDIFGKTPADIAADAGHEDIAEVLQKAAGSPTPTPTTPTPTPTTPTPTPTGSDLGKKLLEAARAGQDDEVRELLKAGADVNAKDVLGWTPLHLAAFEGHLEIVEVLLKAGADVNAKDKKGWTPLQLAARTGHLEIVEVLLKAGADVNAKDHIGATPLHLAAWQGHPEIVEVLLKAGADVNAQDKSGKTPADLAADAGHEDIAEVLQKAAGSPTPTPTTPTPTPTTPTPTPTGSDLGQKLLKAAQEGQDDEVRELLKAGADVNAKDLRGITPLHVAAWQGHLEIVEVLLKAGADVNAKDSKGETPLHLAAFRGHLEIVEVLLKAGADVNAQDQQGETPADLAALAGHVDIAEVLQKAAGSPTPTPTTPTPTPTTPTPTPTGSDLGQKLLKAAQEGQDDEVRELLKAGADVNAKDLRGITPLHVAAWQGHLEIVEVLLKAGADVNAKDSKGETPLHLAAFRGHLEIVEVLLKAGADVNAQDQQGETPADLAALAGHVDIAEVLQKAAGSPTPTPTTPTPTPTTPTPTPTGSDLGKKLLEAARAGQDDEVRELLKAGADVNAKDYFSHTPLHLAARNGHLKIVEVLLKAGADVNAKDFAGKTPLHLAAADGHLEIVEVLLKAGADVNAQDIFGKTPADIAADAGHEDIAEVLQKAAHHHHHH
With B1 the “CD40/NF-κB reporter (HEK-Blue CD40L), 4-1BB-crosslinked, Fold change in Emax” value [1] was 1.01 fold, the “CD40/NF-κB reporter (HEK-Blue CD40L), FAP-crosslinked, Fold change in Emax” value [1] was 0.99 fold and the “CD40/NF-κB reporter (HEK-Blue CD40L), uncrosslinked, Fold change in Emax” value [1] was 1.03 fold. For the same binder, the “4-1BB/NF-κB luciferase reporter, CD40-crosslinked, Fold change in Emax” value [2] was 1.11 fold, the “4-1BB/NF-κB luciferase reporter, FAP-crosslinked, EC50” value [2] was 0.02 nM and the “4-1BB/NF-κB luciferase reporter, FAP-crosslinked, Fold change in Emax” value [2] was 13.8 fold. For the same binder, the “4-1BB/NF-κB luciferase reporter, uncrosslinked, Fold change in Emax” value [2] was 1.01 fold.

B2: BNT312 (CD40/4-1BB bispecific antibody molecule, control) (bispecific antibody, human IgG1, kappa)
heavy 1: EVQLVQSGAEVKKPGASVKVSCKTSGYTFTEYIMHWVRQAPGQGLEWMGGIIPNNGGTSYNQKFQGRVTMTVDKSTSTGYMELSSLRSEDTAVYYCTRREVYGRNYYALDYWGQGTLVTVSSASTKGPSVFPLAPSSKSTSGGTAALGCLVKDYFPEPVTVSWNSGALTSGVHTFPAVLQSSGLYSLSSVVTVPSSSLGTQTYICNVNHKPSNTKVDKRVEPKSCDKTHTCPPCPAPEFEGGPSVFLFPPKPKDTLMISRTPEVTCVVVAVSHEDPEVKFNWYVDGVEVHNAKTKPREEQYNSTYRVVSVLTVLHQDWLNGKEYKCKVSNKALPAPIEKTISKAKGQPREPQVYTLPPSREEMTKNQVSLTCLVKGFYPSDIAVEWESNGQPENNYKTTPPVLDSDGSFLLYSKLTVDKSRWQQGNVFSCSVMHEALHNHYTQKSLSLSPGK
light 1: not shown
heavy 2: EVQLVESGGGLVQPGRSLRLSCTASGFSLNDYWMSWVRQAPGKGLEWVGYIDVGGSLYYAASVKGRFTISRDDSKSIAYLQMNSLKTEDTAVYYCARGGLTYGFDLWGQGTLVTVSSASTKGPSVFPLAPSSKSTSGGTAALGCLVKDYFPEPVTVSWNSGALTSGVHTFPAVLQSSGLYSLSSVVTVPSSSLGTQTYICNVNHKPSNTKVDKRVEPKSCDKTHTCPPCPAPEFEGGPSVFLFPPKPKDTLMISRTPEVTCVVVAVSHEDPEVKFNWYVDGVEVHNAKTKPREEQYNSTYRVVSVLTVLHQDWLNGKEYKCKVSNKALPAPIEKTISKAKGQPREPQVYTLPPSREEMTKNQVSLTCLVKGFYPSDIAVEWESNGQPENNYKTTPPVLDSDGSFFLYSRLTVDKSRWQQGNVFSCSVMHEALHNHYTQKSLSLSPGK
light 2: DIVMTQSPSSLSASVGDRVTITCQASEDISSYLAWYQQKPGKAPKRLIYGASDLASGVPSRFSASGSGTDYTFTISSLQPEDIATYYCHYYATISGLGVAFGGGTKVEIKRTVAAPSVFIFPPSDEQLKSGTASVVCLLNNFYPREAKVQWKVDNALQSGNSQESVTEQDSKDSTYSLSSTLTLSKADYEKHKVYACEVTHQGLSSPVTKSFNRGEC
B2 was tested, and the Maximum fluorescence value [3] was 449, the “CD40/NF-κB reporter (HEK-Blue CD40L), 4-1BB-crosslinked, EC50” value [4] was 1.03 nM and the “CD40/NF-κB reporter (HEK-Blue CD40L), 4-1BB-crosslinked, Fold change in Emax” value [4] was 5.97 fold. The “CD40/NF-κB reporter (HEK-Blue CD40L), FAP-crosslinked, Fold change in Emax” value [4] was 5.41 fold, the “CD40/NF-κB reporter (HEK-Blue CD40L), uncrosslinked, Fold change in Emax” value [4] was 5.06 fold and the EC50 [5] was 0.77 nM. For the same binder, the Maximum fluorescence value [5] was 29300, the “4-1BB/NF-κB luciferase reporter, CD40-crosslinked, EC50” value [6] was 1.65 nM and the “4-1BB/NF-κB luciferase reporter, CD40-crosslinked, Fold change in Emax” value [6] was 4.76 fold. For the same binder, the “4-1BB/NF-κB luciferase reporter, FAP-crosslinked, EC50” value [6] was 0.293 nM, the “4-1BB/NF-κB luciferase reporter, FAP-crosslinked, Fold change in Emax” value [6] was 1.19 fold and the “4-1BB/NF-κB luciferase reporter, uncrosslinked, Fold change in Emax” value [6] was 1.09 fold. It also gave a Maximum fluorescence value [7] of 77, an EC50 [8] of 6.78 nM and a Maximum fluorescence value [8] of 108000. The “CD40/NF-κB reporter (HEK-Blue CD40L), 4-1BB-crosslinked, EC50” value [1] was 0.69 nM, the “CD40/NF-κB reporter (HEK-Blue CD40L), 4-1BB-crosslinked, Fold change in Emax” value [1] was 9.51 fold and the “CD40/NF-κB reporter (HEK-Blue CD40L), FAP-crosslinked, Fold change in Emax” value [1] was 6.27 fold. The “CD40/NF-κB reporter (HEK-Blue CD40L), uncrosslinked, Fold change in Emax” value [1] was 7.66 fold, the EC50 [9] was 2.17 nM and the Maximum fluorescence value [9] was 25700. The EC50 [10] was 2.77 nM, the Maximum fluorescence value [10] was 109000 and the “4-1BB/NF-κB luciferase reporter, CD40-crosslinked, EC50” value [2] was 0.41 nM. The “4-1BB/NF-κB luciferase reporter, CD40-crosslinked, Fold change in Emax” value [2] was 3.56 fold, the “4-1BB/NF-κB luciferase reporter, FAP-crosslinked, Fold change in Emax” value [2] was 1.01 fold and the “4-1BB/NF-κB luciferase reporter, uncrosslinked, Fold change in Emax” value [2] was 1.1 fold.

B3: control anti-FAP antibody 28H1 (antibody, V domains shown)
VH: EVQLLESGGGLVQPGGSLRLSCAASGFTFSSHAMSWVRQAPGKGLEWVSAIWASGEQYYADSVKGRFTISRDNSKNTLYLQMNSLRAEDTAVYYCAKGWLGNFDYWGQGTLVTVSS
VL: EIVLTQSPGTLSLSPGERATLSCRASQSVSRSYLAWYQQKPGQAPRLLIIGASTRATGIPDRFSGSGSGTDFTLTISRLEPEDFAVYYCQQGQVIPPTFGQGTKVEIK
B3 was tested, and the Kd [11] was 1.31 nM, the “Ratio of KD of 28H1 to KD of test antibody” value [11] was 1 and the “Ratio of Kd of 28H1 to Kd of test antibody” value [11] was 1. It also gave a koff [11] of 0.000255 s⁻¹ and a kon [11] of 195000 M⁻¹ s⁻¹.

B4: C5_V2-YTIQ linked to human IgG1-Fc (Fc fusion)
chain: QVQLVESGGGLVQPGGSLRLSCSASGFTFSSYAMSWVRQAPGKGLEWVSDINSGGQSTFYADSVKGRFTISRDNAKNTLYLQMNSLRAEDTAVYYCAKHPLTYTIATMNDYDYWGQGTQVTVSSEPKSADKTHTCPPCPAPELLGGPSVFLFPPKPKDTLMISRTPEVTCVVVDVEHEDPEVKFNWYVDGVEVHNAKTKPREEQYNSTYRVVSVLTVLHQDWLNGKEYKCKVSSKAFPAPIEKTISKAKGQPREPQVYTLPPSRDELTKNQVSLTCLVKGFYPSDIAVEWESNGQPENNYKTTPPVLDSDGSFFLYSKLTVDKSRWQQGNVFSCSVMHEALHNHYTQKSLSLSPGK
With B4 the EC50 [12] was 0.7 nM and the Maximum fluorescence value [12] was 51700.

B5: humanized anti-4-1BB nanobody C5_V1 linked to human IgG1-Fc (Fc fusion)
chain: B4 chain with Q56E, A61E, K98R, Y103F, Q119L
B5 was tested, and the “Activation of HEK293-4-1BB cells (NF-κB reporter), Fold change in Emax” value [13] was 1.14 fold, the “FcγRIIb-mediated activation of HEK293-4-1BB cells (NF-κB reporter), Fold change in Emax” value [13] was 2.28 fold and the EC50 [14] was 3.79 nM. It also gave a Maximum fluorescence value [14] of 1040.

B6: humanized anti-4-1BB nanobody C5_V3 linked to human IgG1-Fc (Fc fusion)
chain: B4 chain with Q56E, A61E, R87K, A88P, Y103F, Q119L
Work on B6 yielded an EC50 [14] of 1.65 nM.
